US20260070987A1
Numbering of substitutions follows the chain as printed. Numbers in names are those of the source.

B1: equine IgG7 wild-type (antibody, part only; not given: variable domains; allotype unstated, not shown: another chain or arm of the molecule)
constant: ASTTAPKVFPLASHSAATSGSTVALGCLVSSYFPEPVTVSWNSGALTSGVHTFPSVLQSSGLYSLSSMVTVPASSLKSQTYICNVAHPASSTKVDKKIVIKECGGCPTCPECLSVGPSVFIFPPKPKDVLMISRTPTVTCVVVDVGHDFPDVQFNWYVDGVETHTATTEPKQEQNNSTYRVVSILAIQHKDWLSGKEFKCKVNNQALPAPVQKTISKPTGQPREPQVYVLAPHRDELSKNKVSVTCLVKDFYPTDIDIEWKSNGQPEPETKYSTTPAQLDSDGSYFLYSKLTVETNRWQQGTTFTCAVMHEALHNHYTEKSVSKSPGK
B2: equine IgG7 K311A mutant (antibody, part only; not given: Variable domains, not shown: another chain or arm of the molecule)
constant: B1 constant with K190A
B3: equine IgG7 K311C mutant (antibody, part only; not given: variable domains, not shown: another chain or arm of the molecule)
constant: B1 constant with K190C
B4: equine IgG7 K311D mutant (antibody, part only; not given: Variable domains, not shown: another chain or arm of the molecule)
constant: B1 constant with K190D
B5: equine IgG7 K311E mutant (antibody, part only; not given: variable domains, not shown: another chain or arm of the molecule)
constant: B1 constant with K190E
B6: equine IgG7 K311F mutant (antibody, part only; not given: variable domains, not shown: another chain or arm of the molecule; small tags and cut ends)
constant: B1 constant with K190F
B7: equine IgG7 K311G mutant (antibody, part only; not given: variable domains, not shown: another chain or arm of the molecule)
constant: B1 constant with K190G
B8: equine IgG7 K311H mutant (antibody, part only; not given: Variable domains, not shown: another chain or arm of the molecule)
constant: B1 constant with K190H
B9: equine IgG7 K311I mutant (antibody, part only; not given: variable domains, not shown: another chain or arm of the molecule)
constant: B1 constant with K190I
B10: equine IgG7 K311L mutant (antibody, part only; not given: variable domains, not shown: another chain or arm of the molecule)
constant: B1 constant with K190L
B11: equine IgG7 K311M mutant (antibody, part only; not given: variable domains, not shown: another chain or arm of the molecule)
constant: B1 constant with K190M
B12: equine IgG7 K311N mutant (antibody, part only; not given: variable domains, not shown: another chain or arm of the molecule)
constant: B1 constant with K190N
B13: equine IgG7 K311Q mutant (antibody, part only; not given: Variable domains, not shown: another chain or arm of the molecule)
constant: B1 constant with K190Q
B14: equine IgG1 D312T (antibody, part only; not given: Variable domains, not shown: another chain or arm of the molecule)
constant: ASTTAPKVFALAPGCGTTSDSTVALGCLVSGYFPEPVKVSWNSGSLTSGVHTFPSVLQSSGFYSLSSMVTVPASTWTSETYICNVVHAASNFKVDKRIEPIPDNHQKVCDMSKCPKCPAPELLGGPSVFIFPPNPKDTLMITRTPEVTCVVVDVSQENPDVKFNWYMDGVEVRTATTRPKEEQFNSTYRVVSVLRIQHQTWLSGKEFKCKVNNQALPQPIERTITKTKGRSQEPQVYVLAPHPDELSKSKVSVTCLVKDFYPPEINIEWQSNGQPELETKYSTTQAQQDSDGSYFLYSKLSVDRNRWQQGTTFTCGVMHEALHNHYTQKNVSKNPGK
B15: equine IgG1 D312V (antibody, part only; not given: Variable domains, not shown: another chain or arm of the molecule)
constant: B14 constant with T200V
B16: equine IgG1 D312W (antibody, part only; not given: variable domains, not shown: another chain or arm of the molecule)
constant: B14 constant with T200W
B17: equine IgG1 M252W (antibody, part only; not given: variable domains, not shown: another chain or arm of the molecule)
constant: B14 constant with M140W, T200D
B18: equine IgG1 D312Y (antibody, part only; not given: variable domains, not shown: another chain or arm of the molecule)
constant: B14 constant with T200Y
B19: equine IgG1 G426A (antibody, part only; not given: variable domains, not shown: another chain or arm of the molecule)
constant: B14 constant with T200D, G316A
B20: equine IgG1 G426C (antibody, part only; not given: variable domains, not shown: another chain or arm of the molecule)
constant: B14 constant with T200D, G316C
B21: equine IgG1 G426D (antibody, part only; not given: variable domains, not shown: another chain or arm of the molecule)
constant: B14 constant with T200D, G316D
B22: equine IgG1 G426E (antibody, part only; not given: Variable domains, not shown: another chain or arm of the molecule)
constant: B14 constant with T200D, G316E
B23: equine IgG1 G426F (antibody, part only; not given: variable domains, not shown: another chain or arm of the molecule)
constant: B14 constant with T200D, G316F
B24: equine IgG1 G426H (antibody, part only; not given: variable domains, not shown: another chain or arm of the molecule)
constant: B14 constant with T200D, G316H
B25: equine IgG1 G426I (antibody, part only; not given: variable domains, not shown: another chain or arm of the molecule)
constant: B14 constant with T200D, G316I
B26: equine IgG1 G426K (antibody, part only; not given: Variable domains, not shown: another chain or arm of the molecule)
constant: B14 constant with T200D, G316K
B27: equine IgG1 G426L (antibody, part only; not given: variable domains, not shown: another chain or arm of the molecule)
constant: B14 constant with T200D, G316L
B28: equine IgG1 M252Y (antibody, part only; not given: variable domains, not shown: another chain or arm of the molecule)
constant: B14 constant with M140Y, T200D
B29: equine IgG1 G426M (antibody, part only; not given: variable domains, not shown: another chain or arm of the molecule)
constant: B14 constant with T200D, G316M
B30: equine IgG1 G426N (antibody, part only; not given: variable domains, not shown: another chain or arm of the molecule)
constant: B14 constant with T200D, G316N
B31: equine IgG1 G426P (antibody, part only; not given: variable domains, not shown: another chain or arm of the molecule)
constant: B14 constant with T200D, G316P
B32: equine IgG1 G426Q (antibody, part only; not given: variable domains, not shown: another chain or arm of the molecule)
constant: B14 constant with T200D, G316Q
B33: equine IgG1 G426R (antibody, part only; not given: variable domains, not shown: another chain or arm of the molecule)
constant: B14 constant with T200D, G316R
B34: equine IgG1 G426S (antibody, part only; not given: variable domains, not shown: another chain or arm of the molecule)
constant: B14 constant with T200D, G316S
B35: equine IgG1 G426T (antibody, part only; not given: variable domains, not shown: another chain or arm of the molecule)
constant: B14 constant with T200D, G316T
B36: equine IgG1 G426V (antibody, part only; not given: Variable domains, not shown: another chain or arm of the molecule)
constant: B14 constant with T200D, G316V
B37: equine IgG1 G426W (antibody, part only; not given: variable domains, not shown: another chain or arm of the molecule)
constant: B14 constant with T200D, G316W
B38: equine IgG1 G426Y (antibody, part only; not given: variable domains, not shown: another chain or arm of the molecule)
constant: B14 constant with T200D, G316Y
B39: equine IgG1 T286A (antibody, part only; not given: Variable domains, not shown: another chain or arm of the molecule)
constant: B14 constant with T174A, T200D
B40: equine IgG1 M428A (antibody, part only; not given: variable domains, not shown: another chain or arm of the molecule)
constant: B14 constant with T200D, M318A
B41: equine IgG1 M428C (antibody, part only; not given: variable domains, not shown: another chain or arm of the molecule)
constant: B14 constant with T200D, M318C
B42: equine IgG1 M428E (antibody, part only; not given: variable domains, not shown: another chain or arm of the molecule)
constant: B14 constant with T200D, M318E
B43: equine IgG1 M428F (antibody, part only; not given: variable domains, not shown: another chain or arm of the molecule)
constant: B14 constant with T200D, M318F
B44: equine IgG1 M428G (antibody, part only; not given: variable domains, not shown: another chain or arm of the molecule)
constant: B14 constant with T200D, M318G
B45: equine IgG1 M428H (antibody, part only; not given: variable domains, not shown: another chain or arm of the molecule)
constant: B14 constant with T200D, M318H
B46: equine IgG1 M428I (antibody, part only; not given: variable domains, not shown: another chain or arm of the molecule)
constant: B14 constant with T200D, M318I
B47: equine IgG1 M428K (antibody, part only; not given: variable domains, not shown: another chain or arm of the molecule)
constant: B14 constant with T200D, M318K
B48: equine IgG1 M428L (antibody, part only; not given: variable domains, not shown: another chain or arm of the molecule)
constant: B14 constant with T200D, M318L
B49: equine IgG1 M428N (antibody, part only; not given: Variable domains, not shown: another chain or arm of the molecule)
constant: B14 constant with T200D, M318N
B50: equine IgG1 T286C (antibody, part only; not given: variable domains, not shown: another chain or arm of the molecule)
constant: B14 constant with T174C, T200D
B51: equine IgG1 M428Q (antibody, part only; not given: Variable domains, not shown: another chain or arm of the molecule)
constant: B14 constant with T200D, M318Q
B52: equine IgG1 M428T (antibody, part only; not given: variable domains, not shown: another chain or arm of the molecule)
constant: B14 constant with T200D, M318T
B53: equine IgG1 M428V (antibody, part only; not given: variable domains, not shown: another chain or arm of the molecule)
constant: B14 constant with T200D, M318V
B54: equine IgG1 M428W (antibody, part only; not given: variable domains, not shown: another chain or arm of the molecule)
constant: B14 constant with T200D, M318W
B55: equine IgG1 M428Y (antibody, part only; not given: variable domains, not shown: another chain or arm of the molecule)
constant: B14 constant with T200D, M318Y
B56: equine IgG1 N434A (antibody, part only; not given: Variable domains, not shown: another chain or arm of the molecule)
constant: B14 constant with T200D, N324A
B57: equine IgG1 N434C (antibody, part only; not given: variable domains, not shown: another chain or arm of the molecule)
constant: B14 constant with T200D, N324C
B58: equine IgG1 N434E (antibody, part only; not given: variable domains, not shown: another chain or arm of the molecule)
constant: B14 constant with T200D, N324E

Tests used:
[1] = target: equine FcRn (large alpha subunit p51) in complex with equine beta-2-microglobulin (equine) (UniProt F6XZ61); assay: SPR (Biacore), pH 6
[2] = target: equine FcRn (large alpha subunit p51) / equine beta-2-microglobulin complex, biotinylated (equine) (UniProt P30441); assay: SPR (Biacore), pH 6
Sequence of UniProt P30441 (P30441 21-118, one chain of several): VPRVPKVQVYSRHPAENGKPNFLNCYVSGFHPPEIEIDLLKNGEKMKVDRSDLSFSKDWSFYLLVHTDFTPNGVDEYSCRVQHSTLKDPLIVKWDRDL

Sequence of UniProt F6XZ61 (F6XZ61 entry or part of it, one chain of several): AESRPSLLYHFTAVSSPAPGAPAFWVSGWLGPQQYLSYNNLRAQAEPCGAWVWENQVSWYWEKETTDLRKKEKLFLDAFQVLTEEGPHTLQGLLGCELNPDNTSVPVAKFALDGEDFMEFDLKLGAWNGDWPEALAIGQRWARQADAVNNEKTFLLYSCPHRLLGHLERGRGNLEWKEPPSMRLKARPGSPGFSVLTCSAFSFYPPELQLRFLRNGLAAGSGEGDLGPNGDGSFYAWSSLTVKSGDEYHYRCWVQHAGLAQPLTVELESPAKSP

| Binder | Kd [1] | Kd [2] |
| --- | --- | --- |
| B1 | 21.7 nM | – |
| B2 | 24.4 nM | – |
| B3 | 15.9 nM | – |
| B4 | 34.1 nM | – |
| B5 | 60 nM | – |
| B6 | 20.5 nM | – |
| B7 | 20.9 nM | – |
| B8 | 19 nM | – |
| B9 | 15.1 nM | – |
| B10 | 17.3 nM | – |
| B11 | 10.4 nM | – |
| B12 | 38 nM | – |
| B13 | 39.5 nM | – |
| B14 | – | 20.3 nM |
| B15 | – | 8.32 nM |
| B16 | – | 21.6 nM |
| B17 | – | 26.6 nM |
| B18 | – | 17.1 nM |
| B19 | – | 17.6 nM |
| B20 | – | 20.4 nM |

| Binder | Kd [1] | Kd [2] |
| --- | --- | --- |
| B21 | – | 25.3 nM |
| B22 | – | 24.1 nM |
| B23 | – | 13.1 nM |
| B24 | – | 12.8 nM |
| B25 | – | 9.47 nM |
| B26 | – | 9.3 nM |
| B27 | – | 9.61 nM |
| B28 | – | 19.3 nM |
| B29 | – | 9.09 nM |
| B30 | – | 10.3 nM |
| B31 | – | 23.9 nM |
| B32 | – | 9.01 nM |
| B33 | – | 10.3 nM |
| B34 | – | 8.97 nM |
| B35 | – | 9.73 nM |
| B36 | – | 8.79 nM |
| B37 | – | 14.7 nM |
| B38 | – | 11.9 nM |
| B39 | – | 18.5 nM |
| B40 | – | 76 nM |

| Binder | Kd [1] | Kd [2] |
| --- | --- | --- |
| B41 | – | 47.5 nM |
| B42 | – | 43.9 nM |
| B43 | – | 17.3 nM |
| B44 | – | 48.8 nM |
| B45 | – | 33.1 nM |
| B46 | – | 28 nM |
| B47 | – | 28.7 nM |
| B48 | – | 8.76 nM |
| B49 | – | 51.6 nM |
| B50 | – | 35.4 nM |
| B51 | – | 32.9 nM |
| B52 | – | 34.8 nM |
| B53 | – | 65.8 nM |
| B54 | – | 31.9 nM |
| B55 | – | 17 nM |
| B56 | – | 6.54 nM |
| B57 | – | 42.6 nM |
| B58 | – | 50.6 nM |
